Results from IntAct's records for PubMed 37020021.

biological target: T1, ncbp1_human NCBP1 (UniProt Q09161)
T1 sequence: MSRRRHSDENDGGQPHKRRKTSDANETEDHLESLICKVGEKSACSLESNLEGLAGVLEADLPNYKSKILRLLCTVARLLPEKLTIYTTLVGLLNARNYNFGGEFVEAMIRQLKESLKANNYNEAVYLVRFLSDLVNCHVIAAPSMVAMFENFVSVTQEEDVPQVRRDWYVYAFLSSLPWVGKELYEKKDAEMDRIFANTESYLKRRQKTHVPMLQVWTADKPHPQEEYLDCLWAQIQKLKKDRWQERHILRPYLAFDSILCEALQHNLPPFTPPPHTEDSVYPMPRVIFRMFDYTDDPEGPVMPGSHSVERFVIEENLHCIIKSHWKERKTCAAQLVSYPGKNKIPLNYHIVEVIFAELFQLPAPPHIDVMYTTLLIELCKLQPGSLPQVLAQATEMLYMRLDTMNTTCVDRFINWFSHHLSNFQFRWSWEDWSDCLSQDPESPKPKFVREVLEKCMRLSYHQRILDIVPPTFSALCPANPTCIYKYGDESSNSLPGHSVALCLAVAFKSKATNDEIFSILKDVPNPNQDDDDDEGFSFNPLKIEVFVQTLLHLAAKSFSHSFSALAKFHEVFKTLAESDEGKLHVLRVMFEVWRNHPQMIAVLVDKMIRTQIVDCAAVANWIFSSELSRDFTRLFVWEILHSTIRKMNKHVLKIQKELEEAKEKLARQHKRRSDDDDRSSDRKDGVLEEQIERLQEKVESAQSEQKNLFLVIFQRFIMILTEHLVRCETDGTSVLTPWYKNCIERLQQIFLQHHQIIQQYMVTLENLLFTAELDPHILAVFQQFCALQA

Effect of a mutation on the interaction, decreasing interaction strength:
THO complex subunit 4 (Homo sapiens) (from UniProt Q86V81) F115S
THO complex subunit 4 (Homo sapiens) (from UniProt Q86V81) P170A
THO complex subunit 4 (Homo sapiens) (from UniProt Q86V81) Q165E
THO complex subunit 4 (Homo sapiens) (from UniProt Q86V81) V169A
